In US20210206877A1:

Molecular target: BACE1 endogenous to primary cortical neurons from E16.5 CD1 mice (mouse) (UniProt P56818)
Assay: cell-based or functional assay

BACE1 endogenous to primary cortical neurons from E16.5 CD1 mice (mouse), sequence (P56818 46-501): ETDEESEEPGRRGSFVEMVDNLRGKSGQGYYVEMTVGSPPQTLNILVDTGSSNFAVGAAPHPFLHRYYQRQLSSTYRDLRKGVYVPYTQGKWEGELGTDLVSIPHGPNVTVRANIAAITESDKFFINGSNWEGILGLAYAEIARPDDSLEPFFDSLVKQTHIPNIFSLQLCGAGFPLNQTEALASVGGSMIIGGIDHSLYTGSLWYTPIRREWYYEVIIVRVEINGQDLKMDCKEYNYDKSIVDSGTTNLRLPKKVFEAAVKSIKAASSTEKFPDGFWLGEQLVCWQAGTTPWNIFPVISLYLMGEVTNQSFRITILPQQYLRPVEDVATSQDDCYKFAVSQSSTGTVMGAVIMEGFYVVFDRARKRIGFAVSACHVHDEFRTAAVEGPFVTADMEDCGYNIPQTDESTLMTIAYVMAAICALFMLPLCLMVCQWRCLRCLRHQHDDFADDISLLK

IC50, inhibition of Aβx-40 production in primary mouse cortical neuron cultures (sandwich ELISA of supernatants): 2.9 nM
maximum inhibition of Aβx-40 production in primary mouse cortical neuron cultures: 62%
Substance: antibody YW412.8.31
